Measured values from patent US20250277031A1 (BEIJING HANMI PHARMACEUTICAL, published 2025).

How the values were obtained:
Assay in all cases: ELISA, plate coated with 1 µg/mL recombinant human protein, anti-human IgG-HRP, OD450; antibody concentration not given
[1] = target: T1, recombinant human PD1 (ACROBiosystems) (human, UniProt Q15116 25-167)
T1 construct: counted here as a CD28 family member
Experimental: (§1) Binding specificity of the chimeric anti-human CD47 mAbs was determined by ELISA. A 96-well high-adsorption ELISA plate was coated with 1 μg/mL of the recombinant human PD1, CD28, CTLA4, ICOS, BTLA, CD47, PD-L2, CD80, CD86, B7-H2, CD47, SIRPα and SIRPγ (all from ACROBiosystems), at 100 μL per well using carbonate buffer solution, pH=9.6 at 4° C. overnight. The plate was washed 5 times with PBST, and then blocked using PBST with 1% BSA, 300 μL/well, and incubated at 25° C. for 1 hour, and then washed 5 times with PBST. The chimeric anti-human CD47 mAb samples serially diluted in PBST with 1% BSA and the control CC-90002 and the isotype control were added, 100 μL/well, incubated at 25° C. for 1 hour, and then washed 5 times with PBST. The horseradish peroxidase-labeled anti-human IgG antibody (Chemicon, catalog number AP309P) diluted 1:10000 in PBST with 1% BSA was then added, 100 μL per well, and incubated at 25° C. for 1 hour. The plate was washed 5 times with PBST. The colorimetric substrate TMB was added, 100 μL/well, and developed at room temperature for 10 minutes. 1M H₂SO₄ was added, 100 μL/well, to stop the development. The absorbance at 450 nm was read on a microplate reader.

[2] = target: T2, recombinant human CD28 (ACROBiosystems) (human, UniProt P10747 19-152)
T2 construct: counted here as a CD28 family member
Experimental: as §1

[3] = target: T3, recombinant human CTLA4 (ACROBiosystems) (human, UniProt P16410 37-162, limits assumed)
T3 construct: counted here as a CD28 family member
Experimental: as §1

[4] = target: T4, recombinant human ICOS (ACROBiosystems) (human, UniProt Q9Y6W8 21-140, limits assumed)
T4 construct: counted here as a CD28 family member
T4 sequence (looked up): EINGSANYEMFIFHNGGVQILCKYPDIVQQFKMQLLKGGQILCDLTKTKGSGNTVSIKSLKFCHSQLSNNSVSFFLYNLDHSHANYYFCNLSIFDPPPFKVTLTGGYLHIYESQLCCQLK
Experimental: as §1

[5] = target: T5, recombinant human BTLA (ACROBiosystems) (human, UniProt Q7Z6A9 31-151, limits assumed)
T5 construct: counted here as a CD28 family member
Experimental: as §1

[6] = target: T6, recombinant human PD-L2 (ACROBiosystems) (human, UniProt Q9BQ51 20-219, limits assumed)
T6 construct: counted here as a B7 family member
T6 sequence (looked up): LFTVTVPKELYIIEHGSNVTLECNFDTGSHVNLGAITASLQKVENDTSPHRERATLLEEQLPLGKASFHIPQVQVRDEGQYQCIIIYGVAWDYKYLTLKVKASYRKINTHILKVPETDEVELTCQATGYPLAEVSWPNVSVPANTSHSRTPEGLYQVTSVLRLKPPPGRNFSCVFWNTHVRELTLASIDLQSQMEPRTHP
Experimental: as §1

[7] = target: T7, recombinant human CD80 (ACROBiosystems) (human, UniProt P33681 35-242)
T7 construct: counted here as a B7 family member
T7 sequence (looked up): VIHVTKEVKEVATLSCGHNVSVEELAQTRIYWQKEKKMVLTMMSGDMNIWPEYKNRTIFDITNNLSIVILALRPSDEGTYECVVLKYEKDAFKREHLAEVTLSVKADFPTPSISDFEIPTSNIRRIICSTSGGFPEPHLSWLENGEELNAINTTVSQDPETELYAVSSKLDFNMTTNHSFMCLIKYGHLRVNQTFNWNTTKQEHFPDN
Experimental: as §1

[8] = target: T8, recombinant human CD86 (ACROBiosystems) (human, UniProt P42081 26-247, limits assumed)
T8 construct: counted here as a B7 family member
T8 sequence (looked up): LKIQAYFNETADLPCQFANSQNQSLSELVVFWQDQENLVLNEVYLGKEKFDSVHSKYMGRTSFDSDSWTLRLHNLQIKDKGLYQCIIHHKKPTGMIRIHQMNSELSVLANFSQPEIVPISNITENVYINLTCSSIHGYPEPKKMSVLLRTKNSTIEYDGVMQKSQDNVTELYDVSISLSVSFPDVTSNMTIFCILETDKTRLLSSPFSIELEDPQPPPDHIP
Experimental: as §1

[9] = target: T9, recombinant human SIRPα (ACROBiosystems) (human, UniProt P78324 31-370)
T9 construct: unlabelled protein coated in the specificity ELISA
Experimental: as §1

T1 sequence (Q15116 25-167 limits assumed): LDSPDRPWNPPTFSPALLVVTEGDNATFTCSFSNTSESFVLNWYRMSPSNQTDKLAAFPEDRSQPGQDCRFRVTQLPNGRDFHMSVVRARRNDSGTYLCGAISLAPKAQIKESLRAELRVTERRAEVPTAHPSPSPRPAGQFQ
T3 sequence (P16410 37-162 limits assumed): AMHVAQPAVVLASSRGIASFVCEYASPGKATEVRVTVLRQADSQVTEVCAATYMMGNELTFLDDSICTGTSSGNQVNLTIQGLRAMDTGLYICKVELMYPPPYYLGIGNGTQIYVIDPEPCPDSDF
T9 sequence (P78324 31-370 limits assumed): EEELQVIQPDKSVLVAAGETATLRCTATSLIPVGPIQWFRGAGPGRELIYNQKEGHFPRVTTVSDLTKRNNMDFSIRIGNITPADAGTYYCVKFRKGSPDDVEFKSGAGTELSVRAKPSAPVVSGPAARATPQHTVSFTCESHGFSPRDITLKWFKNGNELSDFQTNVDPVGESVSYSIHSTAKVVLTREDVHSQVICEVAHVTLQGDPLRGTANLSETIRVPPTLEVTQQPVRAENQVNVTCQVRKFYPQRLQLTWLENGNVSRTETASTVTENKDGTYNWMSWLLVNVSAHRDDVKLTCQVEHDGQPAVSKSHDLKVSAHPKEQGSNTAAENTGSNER
T5 sequence (Q7Z6A9 31-151 limits assumed): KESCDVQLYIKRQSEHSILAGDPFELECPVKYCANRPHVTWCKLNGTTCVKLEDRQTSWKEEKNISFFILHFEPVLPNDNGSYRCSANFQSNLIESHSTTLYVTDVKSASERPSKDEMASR

binding result [1]: no binding
binding result [2]: no binding
binding result [3]: no binding
binding result [4]: no binding
binding result [5]: no binding
binding result [6]: no binding
binding result [7]: no binding
binding result [8]: no binding
binding result [9]: no binding
B1: chimeric anti-human CD47 monoclonal antibody mAb-18-5 (antibody, human IgG1, kappa)
heavy: not shown
light: DIVMTQSQKFMSTSVGDRVSITCKASQNVRTSIAWYQQKSGQSPKTLIYLASNRHTGVPDRFTGSGSGTDFTLTISNVQSEDLADYFCLQHWNYPFTFGSGTKLEIKRTVAAPSVFIFPPSDEQLKSGTASVVCLLNNFYPREAKVQWKVDNALQSGNSQESVTEQDSKDSTYSLSSTLTLSKADYEKHKVYACEVTHQGLSSPVTKSFNRGEC
